Laboratory results: the DeepSol protein solubility set

experiment: soluble on expression in E. coli; label from the status in PepcDB or PDB records

| Sequence | soluble on expression in E. coli |
| --- | --- |
| MSLKRTAEEIKQEVKSLSQQALDAVKKHTHSPEGVKELLNFMSRFPERSFRNQLLIEEQFPGATACLGRAALKKEGIYIKKGEQGNKIFVRKTVKGFYEKGRGFVRETEATPEDKKRIKSGQIEVIKKPYYTIEKVFDITQTQLKPEDYPKIFPNRVFDFQLDAKGQSELQAGIQAVANNIGIQIRDMTESEEGHHHHHH | soluble |
| MGSDKIHHHHHHMLWYDSRAQRLRERSAVWAQNQKTDPDFDGLPPKYAEELQKNILGTVVLPGDPEYDTDRMLSNPRFSAYPQVIVYCEVETDVAECLRVARALSMAVVVRSGGHSTAGFSSQNGFLIDVSRMNDVCISPEALRAWVGPGTNFGKFNAKLLPYDLHTPGGACPDVCVGGYMQGGGYGFTARIFGMNCDQVEEIRVMMTDGRIVHANAELNPDLFWAVRGGTGSNFGVLLGVKYRLYRGSTFAGFSVRWSMQTDAGVQDTATSLAWLQENFMRTGAPDTMGYQMIWAFEGPEGQAKEPVLLMRGMYRGTREELQEKLAPVLALPGATLQAIYDPQQYIDLNRILLSEPYEVPEFPADMTPMPPPEAKISRYVAKPIDAAGWKALLDYFRTSPSPYTIAAMEIYGGAIARMPKGENAFFHRDVYCDLFFDVFWLTEQEKETMLAFIAGWEAAFAPHWTGQSYQNYPSPDNPGFADEYWGDTYWLLRLIKHKYDPINLLRFPQSIQPLEWHPPGPGFPPGFRGFEDPIQAIAG | not soluble |
| RQTHYLIHSDLGFRTRGVLWISNTVDSVPKGILRAELEKIPGVEKVSYACGNPIRYLNNMSFTKDGVNVSTWEMVVDSVFFDFFEISPIPLTDEPVETFFDREKMRAARIIPEWGNMKMINAVRPDPETGIFTQGDDDNDEVKYRMVGRIPDLKYKPLNMEQSPLQIRPLYAREQPWVTLVRASDEADKSAVLAAVSDTYKRVTGAEDIEPLWAEDIILDRYKSQTNLSQ | not soluble |
| MLPQLKAQFKEREPDVREYNADILVVGGGLGGVAAALGALRNGRSVILTEAFEWIGGQLTSQAVPPDEHSWVEQFGITASYRALRTGVRQYYRDHYPLTDAARADLTLNPGDGNVSRLCHEPRVSLAVMEAMLAPFAAGGKLTILKPYEPIAADVEGDTVRAVTLRHCNTSDLVSCSARYIIDATELGDLLPLTATDYVTGFEAQSETGEPSAPAEAQPHNQQAVSICFAVDQVDGNHVIDKPARYDHWRQVAPEFWGGPLLSWDSPNPRTLERSRRFFDPNPVDNATRDVADQRHSAGDMSLWIFRRIAARHTFRPGAYASDICLVNWPMIDYFEAPIIDVTPEQYAERLADAASLSYSMFYWMQTEAPRPDGGQGFPGLRLRGDITGTEHGLAMAPYIRESRRIRALTTVVEQDLSLAVRGDRGAVHYPDSIGIGMYRIDLHPSTGGDNYIDVGACPFEIPLGALISRHKTNLLAASKNIGTTHITNGCYRLHPVEWNIGEVAGMLAAYCLDKGETPHGVHADEKRLAEFHTHIERQGVERHWPDIRGYLEHHHHHH | not soluble |
| KGFFALSSCTLGLGLILTACGARGKFDQVDDGVIKLATSIQNKDSIAALNTIYKKYKERHPGSYPVQNFQVPGGYSGLRNDIRTRLSAKDGNNFYNI | not soluble |
| MKKVYIKTFGCQMNEYDSDKMADVLGSAEGMVKTDNPEEADVILFNTCSVREKAQEKVFSDLGRIRPLKEANPDLIIGVGGCVASQEGDAIVKRAPFVDVVFGPQTLHRLPDLIESRKQSGRSQVDISFPEIEKLEHHHHHH | not soluble |
| MSLDVSYSFTPLTGYKDSLVNQHVKLPLNYPTIDNHNPKKSTTPNNEFHKKIATTGKIINLPKQSIVPAVSISVYNDMKTIVLTPMEFQLSSIGFQFQNLIIDLPHSTISTNCITFYYHQDHILIDLIDQNYLFITLKIAIDRFILGGQQLTLDNFEEWGYISVPYSFELRSSPFLLKCLDNLNLIVSLKDGGLLHFKRDEELGEINVFNFQEQGTLIPFLGFFGSGKQKDVVLDGVSSNSIVDALQIGGSGVVITLSVNKVLKLWNLDGHQNLSSLTIASDDNTWLPTIPSKYLKSYDQEDGKTIITLFINTKSGDSSKSMFVFKSFELESSNLHDLSDLSFQPELPNSLLFSSDVFYHESNFQNTIWFIQDYEVVGFGTSQLKYYILWKSNTSSILVEYTINPVNGAILSIEISHPNGFEIDENISAYHDAEYYMDRIFDSGNYDSLIVLTSIKILSQHWEIDNEGHHHHHH | soluble |
| MGSDKIHHHHHHMESHVNILKSDVKIDPSRSPFMKERVEVMYEGDDLESILEQVKEIELGEMTFKVIFVKINDLEGENKIEYAERRIIERRIGDCIDAEADVRNPERTFGIVPLGGRWYFGHYVESKPVWYHHIKKPRSYSTSLSTRVARSVANIAVPNPEGVRAIDPCCGIGTVVVEALSMGINIVGRDISPLVAIGARENIAHFGFDGTITKGPIEEITENYDVAIIDMPYDLFTHATPENQLSILSSARRIAKKVVVVTMETMDDMIHEAGFEIIDRCTTKKGTFSRQILVCE | not soluble |
| MVEMDGRKFLKLLKEEVHKAVVGKDDVIELLAIALLAEGHVMIEGVPGVAKTTIAKSFAQVLGLKFSRIQLTPDLLPADILGTVYYDQSDGLWKIKKGPIFANVVLADEINRAQPKTQSALLEAMQERQVTIEGRTFPLEKPFMVIATKNPIEFEGVYNLPEAQVDRFMLNIKIGYPTREEEVEMLRKKDRGELGEVGRIFSREQIVRMINEVKRVKTSEEVLHYLYEIVNETRKDERLIVGASPRASEHLLYASKAKAFLEGRDYVIPDDVKFLAVPVLAHRLLIKAEHEIEGIKGEDIVREILERVEVPI | soluble |
| MEHEQHSSINDILHHYKEGIGSFTNQIPEIAETYNAFTQACFQEGALTKREKQLIALGISLATQDEYCTIYHTKGCLDQGCSDKEILEACGVSAAFAGGAAMSQAVTLVQECLTELKNQKH | not soluble |
| MKRFDLRPLKAGIFERLEELIEKEMQPNEVAIFMFEVGDFSNIPKSAEFIQSKGHELLNSLRFNQADWTIVVRKKA | not soluble |
| MAHHHHHHMKPTPLRGQPGLSRNGEGHNDRATSAASHLWARGARTQSPRRGQKESIATRTAVNNGGGPTHAATTRRSAQASRRTSTRYFKLPDAIAEKGEGAFSPTEPDCGATVLRHPASGRRHEEGEQGGSGIVCDVGVGAEKVAGGRLTTLRRTRGQPNKEASRTAFSMATDDVAPPTRLQYARMPRPMSQMNRTPLGVAVLGLQKIAARSETKRTRPLKRKRRINLPAAGPNGSDGLHSDLRG | soluble |
| MKTIGLLGGMSWESTIPYYRLINEGIKQRLGGLHSAQMLLHSVDFHEIEECQRRGEWDKTGDILAEAALGLQRAGAEGIVLCTNTMHKVADAIESRCTLPFLHIADATGRAITGAGMTRVALLGTRYTMEQDFYRGRLTEQFSINCLIPEADERAKINQIIFEELCLGQFTEASRAYYAQVIARLAEQGAQGVIFGCTEIGLLVPEERSVLPVFDTAAIHAEDAVAFMLS | not soluble |
| MIAATPQAMDKQPSAKNQPCGIDKEVGTIANTVITLMPKYIDTNVIVLRHSCANRPPWRNAATNHANNPRNPSKNSTDITTPIDAAISGTACPFIRFSNSAIN | not soluble |
| MAITLKTYAYTINRVLYFHTFVKFLFSNLVSFDTFEEIGNDVAVIVFLEHSFTRSHEKRHVCRESLLLSSCNNKLSRIHGLSERISKRYQKPSRGDIVVIRSPENPNKTPIKRVVGVEGDCISFVIDPVKSDESQTIVVPKGHVFVQGDYTHNSRDSRNFGPVPYGLIQGRVLWRDNTTGIVTQVVLDTALLRETTNGLRIKTYQGGSGYVQGIRFTNVEMQDTSAVKISHIMYRNITKSAKAIKFACSDTVPCSHIVLNNVNLEGKDGQVEAYCNSAEGFGYGVYSHNDKGLDQTHKSEEAETGHDEL | soluble |
| MVKVYIHDNKVDSDYRAPHNSGTELSLDELAKLGVIYKYCANEEEVNEIARQREYKNRDVVNICEGSFKSEAEFNEKLATFYQEHLHEDEEIRYCLEGAGYFDVRDASTPENWIRCLVESGDLLILPPGIYHRFTLTTSNHIKALRLFKDEPKWQAINRSNQADSLPVRKDYIALINQY | soluble |
| MFELVDNIAQTAVIKVIGVGGGGGNAVNHMAKNNVEGVEFICANTDAQALKNIAARTVLQLGPGVTKGLGAGANPEVGRQAALEDRERISEVLEGADMVFITTGMGGGTGTGAAPIIAEVAKEMGILTVAVVTRPFPFEGRKRMQIADEGIRALAESVDSLITIPNEKLLTILGKDASLLAAFAKADDVLAGAVRGISDIIKRPGMINVDFADVKTVMSEMGMAMMGTGCASGPNRAREATEAAIRNPLLEDVNLQGARGILVNITAGPDLSLGEYSDVGNIIEQFASEHATVKVGTVIDADMRDELHVTVVATGLGARLEKPVKVVDNTVQGSAAQAAAPAQREQQSVNYRDLDRPTVMRNQSHGSAATAAKLNPQDDLDYLDIPAFLRRQAD | soluble |
| MTINEPLLSPLEQVVRNIEQVIVGKRNVIVLSLTALLAKGHVLLEDVPGVGKTMLVRALAKSFSAELKRIQFTPDLLPSDVIGVSVYNPKTQQFEYKPGPIVAHIVLADEINRTSPKTQSALLEAMEEGSVTVDGVTRALPQPFFVMATQNPIEYEGTYPLPEAQLDRFLLKLHMRYPSPDEEIEMLNRLEKTAPLAEIGPVMSLDELLALQRKVADVHVSDTVKRYIVDLIQQSRQHEAVYLGVSPRGSVALMKAAQAYAFIHGRDFVIPDDVQQLAPYVLAHRLLVRPEAKWDKFDAETIIGQLIARTPVPVPGRR | not soluble |
| MGSDKIHHHHHHMEGYLNSRLVRNAARVALVVAIPATLAGCGINTIPTQDEATKTAWAEVQNQYQRRADLIPNLVATVKGYAAQEKDVLTAVTEARASATQVKVDASTITDPAQFQKFAAAQDQLSGVLGRLMVIQEQYPDLKSNQNFLALQSQLEGTENRITIARRDYNETAQKYNTTLRTFPSLLWAKTLYSDQKPAQLFQASAAAQSAPTVDFSSPPTATPPKVQ | not soluble |
| MFTKRHRITLLFNANKAYDRQVVEGVGEYLQASQSEWDIFIEEDFRARIDKIKDWLGDGVIADFDDKQIEQALADVDVPIVGVGGSYHLAESYPPVHYIATDNYALVESAFLHLKEKGVNRFAFYGLPESSGKRWATEREYAFRQLVAEEKYRGVVYQGLETAPENWQHAQNRLADWLQTLPPQTGIIAVTDARARHILQVCEHLHIPVPEKLCVIGIDNEELTRYLSRVALSSVAQGARQMGYQAAKLLHRLLDKEEMPLQRILVPPVRVIERRSTDYRSLTDPAVIQAMHYIRNHACKGIKVDQVLDAVGISRSNLEKRFKEEVGETIHAMIHAEKLEKARSLLISTTLSINEISQMCGYPSLQYFYSVFKKAYDTTPKEYRDVNSEVML | soluble |
| GLSDRYQRVKKLGSGAYGEVLLCKDKLTGAERAIKIIKKSSVTTTSNSGALLDEVAVLKQLDHPNIMKLYEFFEDKRNYYLVMEVYRGGELFDEIILRQKFSEVDAAVIMKQVLSGTTYLHKHNIVHRDLKPENLLLESKSRDALIKIVDFGLSAHFEVGGKMKERLGTAYYIAPEVLRKKYDEKCDVWSCGVILYILLCGYPPFGGQTDQEILKRVEKGKFSFDPPDWTQVSDEAKQLVKLMLTYEPSKRISAEEALNHPWIVKFCSQKHTDVGKHALTGALGNMKKFQSSQKLAQAAMLFMGSKLTTLEETKELTQIFRQLDNNGDGQLDRKELIEGYRKLMQWKGDTVSDLDSSQIEAEVDHILQSVDFDRNGYIEYSEFVTVCMDKQLLLSRERLLAAFQQFDSDGSGKITNEELGRLFGVTEVDDETWHQVLQECDKNNDGEVDFEEFVEMMQKICDVKVKH | soluble |
